Results taken from patent US20090018093.
Where two headings read alike, the source gives them in different places.

System: Immunoglobulin E (IgE) (Homo sapiens), P01854-1
Experiment: filter
[1] = 2'-OMe/2'-deoxy mix, 3:21 pair changed, DPBS Mg/Ca, 0.1 mg/mL BSA, RT

Chain of Immunoglobulin E (IgE) (Homo sapiens), P01854-1 (P01854 other isoform, or with tags, fused parts or gaps): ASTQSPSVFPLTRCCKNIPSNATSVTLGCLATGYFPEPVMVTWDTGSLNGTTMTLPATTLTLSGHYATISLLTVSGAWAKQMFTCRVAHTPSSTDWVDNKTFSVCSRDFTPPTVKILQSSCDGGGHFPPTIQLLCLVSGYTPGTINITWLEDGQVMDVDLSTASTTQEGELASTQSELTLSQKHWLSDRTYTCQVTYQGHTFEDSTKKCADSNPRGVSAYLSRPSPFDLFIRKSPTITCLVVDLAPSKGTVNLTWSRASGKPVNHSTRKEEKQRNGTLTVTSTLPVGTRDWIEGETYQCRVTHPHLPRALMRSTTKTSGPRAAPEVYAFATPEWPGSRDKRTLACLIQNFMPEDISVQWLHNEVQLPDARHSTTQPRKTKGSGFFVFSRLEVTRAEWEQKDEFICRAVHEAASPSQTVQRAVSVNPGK

AGCCUGGGGACCCAUGGGGGGCU [ARC1255]
Kd (2'-OMe G9 and all C,U, rest 2'-deoxy, 3' idT [2'-OMe at 3,4,5,9,11,12,13,15,22,23, 3'-idT at 24], DPBS Mg/Ca, 0.1 mg/mL BSA, RT): 8 nM

GGGAGAGGAGAGAACGUUCUACAUUGUGCUCCUGGGGCCCAGUGGGGAGCCACGCUGUCGAUCGAUCGAUCGAUG [ARC1995]
Kd (dRmY: 2'-deoxy A,G, 2'-OMe C,U, error 2, dPBS Ca/Mg + BSA, RT): 4 nM

GGGAGAGGAGAGAACGUUCUACCAACGGCAUCCUGGGCCCCACAGGGGAUGUCGCUGUCGAUCGAUCGAUCGAUG [ARC2002]
Kd (dRmY: 2'-deoxy A,G, 2'-OMe C,U, error 6, dPBS Ca/Mg + BSA, RT): 8 nM

GGGGTATGTTGATCCGTCCCTCCTAGTGGCATGCCCC [DNA clone SEQ 133]
Kd: 0.7 nM

AGCCUGGGNGACCCAUNNNGNNGNNGNCNUNN [ARC3275]
Kd (ARC2342 chemistry with 2'-OMe G8,G9,I16, 3' idT, DPBS Mg/Ca, BSA, RT): 0.67 nM

AGGCUGGGGACCCAUGGGGGCCU [ARC1245]
Kd [1]: 198 nM

AGNCCUGGGNGACCCAUNNNGNNGNNGCUN [ARC2970]
Kd (ARC1666 chemistry + PS 2-3, 3' idT, DPBS Mg/Ca, BSA, RT): 0.04 nM

AGCCUGGGGACCCAUGGGGGGCU [ARC1333]
Kd (2'-OMe G2,G7,G17 and all C,U, rest 2'-deoxy, 3' idT [2'-OMe G2,C3,C4,U5,G7,C11,C12,C13,U15,G17,C22,U23, 3' inverted dT at 24], DPBS Mg/Ca, 0.1 mg/mL BSA, RT): 1.5 nM

AGCCUGGGGACCCAUGGGGGGCU [ARC1567]
Kd (ARC1335 pattern with dI21, 3' idT [dI21 (inosine, parent base G), 3' inverted dT24, rest ARC1335 pattern], dPBS Ca/Mg + BSA, RT): 3.5 nM

GGGGCTACTTTATCCGTTCCTCCTAGTGGGTAGCCCCT [ARC1272]
Kd (2'-OMe at 8, 3' idT [8 (2'-OMe C), 38 (3' inverted dT)], DPBS Mg/Ca, BSA): 0.2 nM

GGGGCACATTCATCCGTCCCTCCTAGTGGTGTGCTCC [DNA clone SEQ 128]
Kd: 0.5 nM

AGCCUGGGNGACCNCAUNNNGNNGNNGCUN [ARC2979]
Kd (ARC1666 chemistry + PS 12-13, 3' idT, DPBS Mg/Ca, BSA, RT): 0.05 nM

AGUAGCCUGGGGACCCAUGGGGGGCUACU [ARC3276]
Kd (mAmGmUmAmGmCmCmUdGmGdG-s-dGmAmCmCmCmAmU-s-dI-s-mGdI-s-dGdI-s-dGmCmUmAmCmU [dI (written G) at 19,21,23, 2'-OMe 1-8,10,13-18,20,25-29, deoxy 9,11,12,19,21-24, PS 11/12,18/19,19/20,21/22,23/24, 3' inverted dT left out], dPBS Ca/Mg + BSA, RT): 0.03 nM

AGCCUNGGGNGACCCAUNNNGNNGNNGCUN [ARC2973]
Kd (ARC1666 chemistry + PS 5-6, 3' idT, DPBS Mg/Ca, BSA, RT): 0.05 nM

GGGGCTACTTTATCCGTTCCTCCTAGTGGGTAGCCCC [ARC1406]
Kd (2'-OMe at 1-4,7,33-37, PS 23-24, 3' idT [2'-OMe at 1-4,7,33-37, PS 23-24, 3' idT cap after 37 (left out)], DPBS Mg/Ca, BSA): 3.2 nM

AGCCUGGGGACCCAUGGGGGGCU [ARC1257]
Kd (2'-OMe A14 and all C,U, rest 2'-deoxy, 3' idT [2'-OMe at 3,4,5,11,12,13,14,15,22,23, 3'-idT at 24], DPBS Mg/Ca, 0.1 mg/mL BSA, RT): 6 nM

GGGGCTACTTUATCCGTTCCTCCTAGTGGGTAGCCCC [ARC1275]
Kd (2'-OMe U at 11, 3' idT [11 (2'-OMe U), 38 (3' inverted dT)], DPBS Mg/Ca, BSA): 0.3 nM

AGCCUGGGNGACCCAUNNNGNNGNNGCUN [ARC3264]
Kd (ARC1666 chemistry with 2'-OMe I16, 3' idT, DPBS Mg/Ca, BSA, RT): 0.36 nM

AGCCUGGGGACCCAUGGGGGGCU [ARC3266]
Kd (ARC1666 pattern with 2'-OMe G8 and 2'-OMe I16, 3' idT [inosine (written G) at 16 (2'-OMe I),18,20 (dI), 2'-OMe 1-5,7,8,10-17,22,23, deoxy 6,9,18-21, PS 8/9,15/16,16/17,18/19,20/21, 3' inverted dT left out], dPBS Ca/Mg + BSA, RT): 1.3 nM

GGGGCTACTTTATCCGTTCCTCCTAGTGGGTAGCCCC [ARC1398]
Kd (2'-OMe at 1-4,7,33-37, PS 15-16, 3' idT [2'-OMe at 1-4,7,33-37, PS linkage 15-16 (internal N = PS, not a base), 3' inverted dT cap (terminal N, left out)], DPBS Mg/Ca, BSA): 2.7 nM

GGGCTACTTTATCCGTCCCTCCTAGTGGGTAGCCCC [DNA clone SEQ 140]
Kd: 0.2 nM

GGGGCTACTTTATCCGTTCCTCCTAGTGGGTAGCCCCN [ARC1280]
Kd (2'-OMe at 16, 3' idT, DPBS Mg/Ca, BSA): 0.6 nM

GGGGCTACTTTATCCGTTCCTCCTAGTGGGTAGCCCCT [ARC1292]
Kd (DNA with 2'-OMe G28, 3' idT [2'-OMe G28, 3' inverted dT at 38], dPBS Ca/Mg + BSA): 22 nM

GGGGCTACTTTATCCGTTCCTCCTAGTGGGTAGCCCCT [ARC1387]
Kd (2'-OMe at 1-4,7,33-37, 3' idT [2'-OMe: 1-4,7,33-37, 38 = 3' inverted dT], DPBS Mg/Ca, BSA): 2.4 nM

GGGGCTACTTTATCCGTTCCTCCTAGTGGGTAGCCCCN [ARC1296]
Kd (2'-OMe at 32, 3' idT, DPBS Mg/Ca, BSA): 1.2 nM

GGGGCTACTTCATCCGTCCCTCCTAGTGGGTAGCCCC [ARC478]
Kd: 0.4 nM

GGGGCTACTTTATCCGTTCCTCCTAGTGGGTAGCCCCT [ARC1286]
Kd (DNA with 2'-OMe C22, 3' idT [2'-OMe C22, 3' inverted dT38], dPBS Ca/Mg + BSA): 7 nM

GGGGCTACTTTATCCGTTCCTCCUAGTGGGTAGCCCCN [ARC1288]
Kd (2'-OMe U at 24, 3' idT, DPBS Mg/Ca, BSA): 2 nM

GGGGCUACTTUATCCGUUCCTCCTAGTGGGTAGCCCC [ARC1390]
Kd (2'-OMe at 1-8,11,17,18,20,33-37, 3' idT [2'-OMe: 1-8,11,17,18,20,33-37, 38 = 3' inverted dT], DPBS Mg/Ca, BSA): 17 nM

GGAAUCAUACACAAGACGUCGCCAGAUUGAGUGUCGUGGUU [rRfY minimer SEQ 92]
Kd (2'-F C and U, KD2 22.0 nM, 1xSHMCK + tRNA): 0.25 nM

GGGGCTACTTTATCCGTTCCTCCTAGTGGGTAGCCCCN [ARC1297]
Kd (2'-OMe at 33, 3' idT, DPBS Mg/Ca, BSA): 0.8 nM

GGGGCTACTTTATCCGTTCCTCCTAGTGGGTAGCCCCT [ARC1276]
Kd (2'-OMe at 12, 3' idT [12 (2'-OMe A), 38 (3' inverted dT)], DPBS Mg/Ca, BSA): 3 nM

GGGAGAGGAGAGAACGUUCUACCCGCAGCAUAGCCUGGGGACCCAUGGGGGGCGCUGUCGAUCGAUCGAUCGAUG [ARC1994]
Kd (dRmY: 2'-deoxy A,G, 2'-OMe C,U, error 5, dPBS Ca/Mg + BSA, RT, 109.7 nM with tRNA + ssDNA competitor (p280)): 5 nM

AGACUGGGGACCCAUGGGGGUCU [ARC1248]
Kd [1]: 38 nM

GGGGCTACTTTATCCGTTCCTCCTAGTGGGTAGCCCC [ARC1414]
Kd (2'-OMe at 1-4,7,33-37, PS 31-32, 3' idT [2'-OMe at 1-4,7,33-37, PS 31-32, 3' idT cap after 37 (left out)], DPBS Mg/Ca, BSA): 2.9 nM

AGCCUGGGNGACCCAUNNNGNNGNNGNCNUNN [ARC3271]
Kd (ARC2342 chemistry with 2'-OMe I16, 3' idT, DPBS Mg/Ca, BSA, RT): 0.23 nM

GGGGCTACTTTATCCGTTCCTCCTAGTGGGTAGCCCCN [ARC1294]
Kd (2'-OMe at 30, 3' idT, DPBS Mg/Ca, BSA): 8 nM

GGGGCTACTTTATCCGTTCCTCCTAGTGGGTAGCCCCN [ARC1283]
Kd (2'-OMe at 19, 3' idT, DPBS Mg/Ca, BSA): 0.6 nM

AGCCUGGGNGACCCAUNNNGNNGNNGNCNUNN [ARC3272]
Kd (ARC2342 chemistry with 2'-OMe G8,G9, 3' idT, DPBS Mg/Ca, BSA, RT): 0.12 nM

GGGGCTACTTTATCCGTTCCTCCTAGTGGGTAGCCCC [ARC1395]
Kd (2'-OMe at 1-4,7,33-37, PS 12-13, 3' idT [2'-OMe at 1-4,7,33-37, PS linkage 12-13 (internal N = PS, not a base), 3' inverted dT cap (terminal N, left out)], DPBS Mg/Ca, BSA): 5.7 nM

AGCCUGGGNGACCCNAUNNNGNNGNNGCUN [ARC2980]
Kd (ARC1666 chemistry + PS 13-14, 3' idT, DPBS Mg/Ca, BSA, RT): 0.04 nM
